The values that follow come from the supplement of paper PMC9233669.

This sample holds only a part of the variants without activity.

In one data set the test system is biotinyl-Phe-oxazolone. In words: self-aminoacylation, catalytic enhancement (BFO) (fold over background); higher = more active; k-Seq, kA / k0A0; sequences stand for … in GGGAAUGGAUCCACAUCUACGAAUUC…UUCACUGCAGACUUGACGAAGCUG
The procedure, abridged: (§1)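 Working in 50 μL HEPES/NaCl/KCl/MgCl2/CaCl2 buffer with 5% acetonitrile at pH 6.9–7.0, mutagenized RNA pools (0.43 μM; 21-nt variable region) were reacted with 2–1250 μM of each biotinyl-aminoacyl-oxazolone for 90 minutes at room temperature. Streptavidin capture followed, with quantification by triplicate qPCR and Illumina sequencing. Catalytic enhancement is reported as median kA over the uncatalyzed rate, the low-activity peak of a bimodal Gaussian fit to the data.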

For the next data set, the system named is biotinyl-Met-oxazolone. In words: self-aminoacylation, catalytic enhancement (BMO) (fold over background); higher = more active; k-Seq, kA / k0A0; sequences stand for … in GGGAAUGGAUCCACAUCUACGAAUUC…UUCACUGCAGACUUGACGAAGCUG
The procedure, abridged: as §1

For a further data set, the system named is biotinyl-Val-oxazolone. Kind of data set: self-aminoacylation, catalytic enhancement (BVO) (fold over background); higher = more active; k-Seq, kA / k0A0; sequences stand for … in GGGAAUGGAUCCACAUCUACGAAUUC…UUCACUGCAGACUUGACGAAGCUG
The procedure, abridged:
as §1

In the next data set the test system is biotinyl-Leu-oxazolone. Kind of data set: self-aminoacylation, catalytic enhancement (BLO) (fold over background); higher = more active; k-Seq, kA / k0A0; sequences stand for … in GGGAAUGGAUCCACAUCUACGAAUUC…UUCACUGCAGACUUGACGAAGCUG
Put shortly: as §1

The subject of the next data set is biotinyl-Trp-oxazolone. Kind of data set: self-aminoacylation, catalytic enhancement (BWO) (fold over background); higher = more active; k-Seq, kA / k0A0; sequences stand for … in GGGAAUGGAUCCACAUCUACGAAUUC…UUCACUGCAGACUUGACGAAGCUG
Put shortly:
as §1

The subject of another data set is biotinyl-Ile-oxazolone. Kind of data set: self-aminoacylation, catalytic enhancement (BIO) (fold over background); higher = more active; k-Seq, kA / k0A0; sequences stand for … in GGGAAUGGAUCCACAUCUACGAAUUC…UUCACUGCAGACUUGACGAAGCUG
Put shortly: as §1

For the sequence “AUUGCCCUGGACAUCGAGUGA [Fam2.1 aminoacylation ribozyme variant]”, the self-aminoacylation in the data set on biotinyl-Phe-oxazolone was 24.8; in the data set with biotinyl-Met-oxazolone it was 5.71; with biotinyl-Val-oxazolone, 3.11; in the data set on biotinyl-Leu-oxazolone it was 5.58; in the data set on biotinyl-Trp-oxazolone it was 5.92; in the data set with biotinyl-Ile-oxazolone it was 2.41.
Take “CCACACGUGAAGCAAUCGGUC [Fam1B.1 aminoacylation ribozyme variant]”: the self-aminoacylation in the data set on biotinyl-Phe-oxazolone was found to be 0.826; in the data set on biotinyl-Met-oxazolone, 1.32; in the data set on biotinyl-Val-oxazolone, 1.2; in the data set with biotinyl-Leu-oxazolone, 0.721; with biotinyl-Trp-oxazolone, 1.39; in the data set on biotinyl-Ile-oxazolone it was 0.9.
“AUUACCCUAGUCAUCGCGUGA [Fam2.1 aminoacylation ribozyme variant]”: the self-aminoacylation with biotinyl-Phe-oxazolone is 54.5; with biotinyl-Met-oxazolone, 8.29; in the data set on biotinyl-Val-oxazolone it was 5.09; in the data set with biotinyl-Leu-oxazolone, 9.91; with biotinyl-Trp-oxazolone, 10.1; with biotinyl-Ile-oxazolone it was 4.26.
Take “AUUACCCUGGUCGUCGAAUGA [Fam2.1 aminoacylation ribozyme variant]”: the self-aminoacylation amounted to 3.37 in the data set on biotinyl-Phe-oxazolone; 1.22 with biotinyl-Met-oxazolone; 0.838 with biotinyl-Val-oxazolone; 0.734 in the data set on biotinyl-Leu-oxazolone; 1.1 in the data set on biotinyl-Trp-oxazolone; 0.785 in the data set with biotinyl-Ile-oxazolone.
On to “AUUCACCGAGGUUAUCGGGUG [Fam2.2 aminoacylation ribozyme variant]”, for which the self-aminoacylation in the data set with biotinyl-Phe-oxazolone came to 87.3; in the data set with biotinyl-Met-oxazolone it was 7.16; in the data set on biotinyl-Val-oxazolone it was 5.85; in the data set with biotinyl-Leu-oxazolone, 10; in the data set on biotinyl-Trp-oxazolone, 7.66; with biotinyl-Ile-oxazolone it was 4.28.
In the case of “CUACUUCAAAGUAUCGGUCUG [Fam1A.1 aminoacylation ribozyme variant]”, the self-aminoacylation is 1.44 with biotinyl-Phe-oxazolone; 0.824 in the data set with biotinyl-Met-oxazolone; 0.975 in the data set on biotinyl-Val-oxazolone; 0.941 in the data set on biotinyl-Leu-oxazolone; 0.979 in the data set on biotinyl-Trp-oxazolone; 0.979 with biotinyl-Ile-oxazolone.
For “AUUACCCGGGUCAUCGAGUAA [Fam2.1 aminoacylation ribozyme variant]”, the self-aminoacylation stood at 8.59 with biotinyl-Phe-oxazolone; 1.91 with biotinyl-Met-oxazolone; 1.58 with biotinyl-Val-oxazolone; 1.54 in the data set on biotinyl-Leu-oxazolone; 3.56 in the data set with biotinyl-Trp-oxazolone; 2.05 with biotinyl-Ile-oxazolone.
Regarding “AUUACCGUGGUCAUCCAGUGA [Fam2.1 aminoacylation ribozyme variant]”, the self-aminoacylation in the data set on biotinyl-Phe-oxazolone amounted to 28.8; in the data set with biotinyl-Met-oxazolone, 5.39; with biotinyl-Val-oxazolone it was 3.32; in the data set on biotinyl-Leu-oxazolone, 5.29; with biotinyl-Trp-oxazolone it was 6.67; with biotinyl-Ile-oxazolone it was 3.52.
As for “GUUACCCUGCUCAUCGAGUGA [Fam2.1 aminoacylation ribozyme variant]”, the self-aminoacylation amounted to 8.33 with biotinyl-Phe-oxazolone; 3.06 in the data set with biotinyl-Met-oxazolone; 1.79 with biotinyl-Val-oxazolone; 2.23 with biotinyl-Leu-oxazolone; 3.45 in the data set on biotinyl-Trp-oxazolone; 1.66 in the data set with biotinyl-Ile-oxazolone.
As to “AUUACCCUGGUCAUCGCGUGA [Fam2.1 aminoacylation ribozyme variant]”, the self-aminoacylation turned out to be 139 in the data set on biotinyl-Phe-oxazolone; 18.3 with biotinyl-Met-oxazolone; 9.74 in the data set with biotinyl-Val-oxazolone; 20.3 in the data set with biotinyl-Leu-oxazolone; 20.1 in the data set on biotinyl-Trp-oxazolone; 8.09 with biotinyl-Ile-oxazolone.
Regarding “AAGUUUGCUAAUAGUCCCACG [Fam3.1 aminoacylation ribozyme variant]”, the self-aminoacylation is 0.69 in the data set on biotinyl-Phe-oxazolone; 0.931 in the data set with biotinyl-Met-oxazolone; 0.679 in the data set with biotinyl-Val-oxazolone; 0.838 in the data set on biotinyl-Leu-oxazolone; 0.714 with biotinyl-Trp-oxazolone; 0.727 in the data set with biotinyl-Ile-oxazolone.
For “AUCCACCUAGGUCAUCGGGUU [Fam2.2 aminoacylation ribozyme variant]”, the self-aminoacylation in the data set with biotinyl-Phe-oxazolone worked out at 71.1; with biotinyl-Met-oxazolone, 14.3; in the data set on biotinyl-Val-oxazolone, 7.64; in the data set on biotinyl-Leu-oxazolone it was 19; with biotinyl-Trp-oxazolone, 12; in the data set on biotinyl-Ile-oxazolone it was 9.74.
On to “CGACACUUCAAGCAAUCGAUC [Fam1B.1 aminoacylation ribozyme variant]”, for which the self-aminoacylation with biotinyl-Phe-oxazolone was found to be 0.965; in the data set with biotinyl-Met-oxazolone, 0.582; in the data set with biotinyl-Val-oxazolone, 0.727; with biotinyl-Leu-oxazolone it was 0.611; in the data set with biotinyl-Trp-oxazolone, 0.715; in the data set on biotinyl-Ile-oxazolone, 0.672.
Turning to “AUAACCCUGGUCAUCCAGUGA [Fam2.1 aminoacylation ribozyme variant]”, the self-aminoacylation was 22.8 in the data set with biotinyl-Phe-oxazolone; 5.52 in the data set on biotinyl-Met-oxazolone; 3.21 with biotinyl-Val-oxazolone; 6.28 with biotinyl-Leu-oxazolone; 6.17 with biotinyl-Trp-oxazolone; 3.62 with biotinyl-Ile-oxazolone.
Regarding “AUUCACCUAUGUCGUCGGGUG [Fam2.2 aminoacylation ribozyme variant]”, the self-aminoacylation with biotinyl-Phe-oxazolone is 6.21; in the data set with biotinyl-Met-oxazolone, 1.28; in the data set on biotinyl-Val-oxazolone, 1.15; with biotinyl-Leu-oxazolone it was 1.44; in the data set on biotinyl-Trp-oxazolone, 1.3; in the data set with biotinyl-Ile-oxazolone, 1.19.
Take “AUUCACCUAGCUCAUCGAGUG [Fam2.2 aminoacylation ribozyme variant]”: the self-aminoacylation in the data set with biotinyl-Phe-oxazolone was 0.417; in the data set on biotinyl-Met-oxazolone it was 0.652; in the data set on biotinyl-Val-oxazolone it was 0.791; in the data set on biotinyl-Leu-oxazolone, 0.548; in the data set with biotinyl-Trp-oxazolone, 0.394; in the data set on biotinyl-Ile-oxazolone, 0.7.
On to “CCACUCCUCAAGCAAUCGGUC [Fam1B.1 aminoacylation ribozyme variant]”, for which the self-aminoacylation with biotinyl-Phe-oxazolone turned out to be 1.26; with biotinyl-Met-oxazolone it was 0.986; in the data set with biotinyl-Val-oxazolone, 1.23; with biotinyl-Leu-oxazolone, 0.845; with biotinyl-Trp-oxazolone, 1.26; with biotinyl-Ile-oxazolone it was 1.07.
In the case of “AAGUUUGCUAUCAGUCGCAAG [Fam3.1 aminoacylation ribozyme variant]”, the self-aminoacylation is 1.37 with biotinyl-Phe-oxazolone; 0.865 in the data set with biotinyl-Met-oxazolone; 0.931 in the data set on biotinyl-Val-oxazolone; 0.733 in the data set on biotinyl-Leu-oxazolone; 0.615 with biotinyl-Trp-oxazolone; 0.794 with biotinyl-Ile-oxazolone.
On to “UUUACCCUGGUCUUCGAGUGA [Fam2.1 aminoacylation ribozyme variant]”, for which the self-aminoacylation came to 13.9 in the data set with biotinyl-Phe-oxazolone; 3.61 in the data set on biotinyl-Met-oxazolone; 2.79 with biotinyl-Val-oxazolone; 3.58 in the data set on biotinyl-Leu-oxazolone; 5.27 with biotinyl-Trp-oxazolone; 2.46 in the data set with biotinyl-Ile-oxazolone.
With “ACUCGCCUAGGUCAUCGGGUG [Fam2.2 aminoacylation ribozyme variant]”, the self-aminoacylation with biotinyl-Phe-oxazolone is 62.9; with biotinyl-Met-oxazolone, 9.99; in the data set with biotinyl-Val-oxazolone, 6.73; in the data set with biotinyl-Leu-oxazolone it was 11; in the data set on biotinyl-Trp-oxazolone, 10.9; in the data set with biotinyl-Ile-oxazolone it was 6.84.
As to “AUUACCCAUGUCAUCGAGUGA [Fam2.1 aminoacylation ribozyme variant]”, the self-aminoacylation in the data set on biotinyl-Phe-oxazolone turned out to be 34.3; in the data set on biotinyl-Met-oxazolone, 7.7; with biotinyl-Val-oxazolone, 4.43; in the data set with biotinyl-Leu-oxazolone, 8.07; in the data set with biotinyl-Trp-oxazolone it was 9.9; in the data set with biotinyl-Ile-oxazolone, 4.15.
For the sequence “CCACACUUCAAGCAGGCGGUC [Fam1B.1 aminoacylation ribozyme variant]”, the self-aminoacylation with biotinyl-Phe-oxazolone worked out at 0.771; in the data set with biotinyl-Met-oxazolone it was 1.24; in the data set with biotinyl-Val-oxazolone it was 1.54; with biotinyl-Leu-oxazolone it was 1.07; in the data set with biotinyl-Trp-oxazolone, 1.77; with biotinyl-Ile-oxazolone it was 1.86.
With “CUACUUCAAACAAUCGGCCUA [Fam1A.1 aminoacylation ribozyme variant]”, the self-aminoacylation was 2.51 in the data set on biotinyl-Phe-oxazolone; 1.39 in the data set on biotinyl-Met-oxazolone; 1.16 in the data set with biotinyl-Val-oxazolone; 1.25 with biotinyl-Leu-oxazolone; 1.43 in the data set with biotinyl-Trp-oxazolone; 1.48 in the data set on biotinyl-Ile-oxazolone.
